Legend:
[1] = system: cyclin E (substrate of the in vitro ubiquitylation assay)
[2] = target: biotinylated phosphorylated cyclin E degron peptide; experiment: ALPHAscreen, 384-well; His-FBW7 on Ni-chelate acceptor beads, biotin-peptide on streptavidin donor beads
[3] = target: biotinylated phosphorylated cyclin E degron peptide; experiment: ALPHAscreen, 1536-well primary screen, n=518 plates
[4] = target: biotinylated phosphorylated cyclin E degron peptide; experiment: ALPHAscreen, 384-well LOPAC screen; 25 nM FBW7 and 25 nM cyclin E phosphopeptide

Substance | reconstituted in vitro Cyclin E polyubiquitylation assay [1] | fold ALPHA signal, phosphorylated versus unphosphorylated cyclin E degron peptide [2] | signal-to-background (S:B) (Wt-FBW7+pCycE-peptide high control versus Wt-FBW7+unphosphorylated CycE peptide low control) [3] | S:B ratio (wt-FBW7 high control versus mutant FBW7 low control, both with cyclin E phosphopeptide) [4]
mutant FBW7 R505L (FBW7^ARG), recombinant dimeric Skp1-FBW7 complex | FBW7^ARG was inactive |  |  | 
wild-type F-box/WD repeat-containing protein 7 (FBW7), recombinant dimeric Skp1-FBW7 complex | wt-FBW7 was highly active |  |  | 
wild-type F-box/WD repeat-containing protein 7 (FBW7), recombinant dimeric Skp1-FBW7 complex (from UniProt P63208 1-163) (enzyme) |  | 100 fold | 69.3 | 14.6
